The values that follow come from CN106117360A.

For the assay, the target named is CD3 on Jurkat cells. Put plainly: flow cytometry, culture supernatant on Jurkat cells (negative control sdAb).

NC-sdAb(相同形式的非相关性sdAb) (VHH) came in with an MFI of 115 MFI.
